Measured values reported in patent US8802826B2, “Anti-clusterin antibodies and antigen binding fragments and their use to reduce tumor volume” (Alethia Biotherapeutics Inc., priority 2009, dated 2014).

Assays:
DU145 cells = assay: growth in Matrigel, DU145; assay type: cell-based, human; conditions: 8 μg/mL, up to 3 weeks
Method: FIG. 5. Inhibition of h16B5 reduces the invasiveness of human prostate cancer cells. The bottom of 12-well plates was covered with 200 μL Growth factor reduced matrigel (Becton Dickinson). Cells (2.5×10^4) were resuspended in 200 μL matrigel, which was layered on top of this, and finally 500 μL of cell specific growth medium was added on top of the matrigel. h16B5 was added to every layer of matrigel as well as the medium in a concentration of 8 μg/mL. Plates were incubated at 37° C. for up to 3 weeks during which the growth medium (+/−h16B5) was replenished weekly. The arrows indicate the areas of epithelial-like cells.
We then determined whether other cell lines such as the human prostate PC3 and DU145 cell lines, which secrete various levels of endogenous clusterin, could be affected in their invasive behavior and growth by the h16B5.

[1] = target: T1, human clusterin (recombinant monomeric clusterin) (Homo sapiens, UniProt P10909); assay: BIAcore kinetic analysis of antibody binding to immobilized clusterin
T1 construct: Recombinant monomeric clusterin was immobilized on a CM3 chip with normal amine coupling method
T1 sequence (P10909 23-449): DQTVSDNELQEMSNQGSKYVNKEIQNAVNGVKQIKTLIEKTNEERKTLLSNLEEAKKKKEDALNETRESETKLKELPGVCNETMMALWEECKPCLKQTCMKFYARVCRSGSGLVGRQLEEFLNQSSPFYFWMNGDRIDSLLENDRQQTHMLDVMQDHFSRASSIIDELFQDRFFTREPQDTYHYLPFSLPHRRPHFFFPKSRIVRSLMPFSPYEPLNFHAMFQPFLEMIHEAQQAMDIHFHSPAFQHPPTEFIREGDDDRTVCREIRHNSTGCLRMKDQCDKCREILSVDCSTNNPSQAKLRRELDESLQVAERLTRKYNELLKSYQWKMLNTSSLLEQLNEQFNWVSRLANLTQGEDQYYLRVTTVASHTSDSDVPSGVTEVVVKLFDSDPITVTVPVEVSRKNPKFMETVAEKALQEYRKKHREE
Method: The purpose of these investigations is to determine the kinetics parameters of anti-clusterin antibodies. In particular, to determine whether the humanization of the 16B5 and 21B12 anti-clusterin monoclonal antibody affects the kinetics parameters of its binding to human clusterin. To this end, a kinetic analysis method was developed using the BIAcore 3000. Human clusterin was immobilized on a sensor chip. Full length antibodies or Fab fragments were injected and allowed to interact with the immobilized clusterin. This example described the exemplary antibody 16B5 but the 21B12 exemplary antibody was prepared and tested in a similar manner.
HBST (10 mM Hepes pH 7.4, 135 mM NaCl, 3.4 mM EDTA, 0.005% Tween 20) was used as running buffer for all BIAcore experiments. Recombinant monomeric clusterin was immobilized on a CM3 chip with normal amine coupling method at a flow of 5 μl/min. Surface was activated with 35 μl of a mixture of 50 mM NHS/0.2M EDC. Clusterin in 10 mM Na-acetate pH 4.5 was injected until a desired amount was captured (below 60RU). Unreacted esters were deactivated with 35 μL1 of 1M ethanolamine hydrochloride-NaOH pH8.5. A control surface was prepared by injecting NHS/EDC and ethanolamine in the same manner.
Kinetics analysis was conducted at a flow of 50 μl/min. Full length antibodies (mouse or humanized) or Fab were diluted in HBST. Concentration range was from 1.953-31.25 nM for the full length antibodies and 15.625-250 nM for the Fab. Each concentration was injected over the clusterin and a control surface for 5 min followed with a 5 min dissociation wash. The clusterin surface was regenerated between each antibody injection with 50 μl of 20 mM HCl.

[2] = tested on: DU145 human prostate cancer cell line; assay: DU145 prostate tumor xenograft; assay type: in vivo, SCID mice; conditions: 5 mg/kg i.p. twice per week
Method: FIG. 6. Treatment of prostate cancer tumors with h16B5 reduces the growth of the tumors and increases their response to chemotherapy. DU145 prostate cancer cells (2×10^6) were implanted s.c. into SCID mice and allowed to grow until the tumor sizes were approximately 100 mm3. Tumors were measured bi-weekly with a digital caliper and tumor volumes were calculated as L×W×H. Each group contained 8 animals that were randomized prior to the beginning off the treatments. The results were expressed as mm^3±SEM. The P values were calculated using the Student's T test.
These studies were performed to measure the in vivo efficacy of h16B5 in models of human cancer. Antisense oligonucleotides and small interfering RNAs targeting clusterin have been reported to induce apoptosis and chemosensitivity in vitro in prostate cancer xenografts. The model system that was used comprised the DU145 human prostate cancer cell line that is androgen-insensitive and represents one of the most well characterized models for this disease. Thus, 2 million cells were implanted sub-cutaneously into the flanks of SCID mice and the tumors were allowed to grow to approximately 100 mm^3. Starting on day 1, h16B5 was injected intra-peritoneally (i.p.) at a dosage of 5 mg/kg and from day 4, taxotere (TxT) was injected i.p. at a dosage of 10 mg/kg. […]

murine clusterin = target: T2, murine clusterin (Mus musculus, UniProt Q06890); assay: immunohistochemistry on frozen sections of 4T1 mouse mammary tumors; assay type: binding; conditions: 5 μg/ml, 1 h
T2 construct: murine clusterin that was expressed in BR1-JM01 cells; endogenous in cells; host or cells: BR1-JM01 mouse mammary carcinoma cells
T2 sequence (Q06890 22-448): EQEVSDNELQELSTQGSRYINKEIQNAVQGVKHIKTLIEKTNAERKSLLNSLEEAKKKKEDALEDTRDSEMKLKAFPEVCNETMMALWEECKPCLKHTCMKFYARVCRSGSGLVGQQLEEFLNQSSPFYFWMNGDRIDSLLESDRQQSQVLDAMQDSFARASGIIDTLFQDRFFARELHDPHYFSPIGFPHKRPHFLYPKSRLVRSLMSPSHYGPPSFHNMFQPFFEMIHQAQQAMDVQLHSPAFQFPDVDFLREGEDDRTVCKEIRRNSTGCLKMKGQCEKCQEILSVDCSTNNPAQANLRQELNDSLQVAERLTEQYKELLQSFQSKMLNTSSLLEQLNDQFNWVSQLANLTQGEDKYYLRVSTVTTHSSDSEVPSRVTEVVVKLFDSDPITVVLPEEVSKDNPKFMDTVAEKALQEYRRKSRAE
Method: FIG. 16. […] The experiment was performed using immunohistochemistry and detection was accomplished using a HRP-conjugated secondary antibody.
Briefly, the frozen sections were fixed with ice-cold acetone for 10 minutes and non-specific binding was blocked with a reagent supplied in a commercially available kit (Dako Canada, Inc., Burlington, ON). H16B5 was incubated with the mouse tumor section for 1 h at a concentration of 5 μg/ml. […] A control sample was processed in an identical manner with a human isotype control IgG.

clusterin = target: T3, clusterin (Homo sapiens, UniProt P10909); assay: immunohistochemistry on tumors derived from human pancreatic cancer cell lines; assay type: binding; conditions: 5 μg/ml, 1 h at room temperature
T3 construct: from tissue; host or cells: formalin-fixed, paraffin-embedded xenograft tumours of Aspc-1, BxPC-3, PANC-1 and MiaPaCa-2 cells grown in SCID mice
T3 sequence (P10909 23-449): as the sequence (P10909 23-449) above
Method: FIG. 11. Clusterin is expressed in human pancreatic tumors. Tumors derived from pancreatic cancer cell lines (as indicated) were grown in SCID mice, harvested, fixed in formalin, sections and examined using immunohistochemistry with h16B5. Positive staining was visualized by standard methods using a HRP-conjugated secondary antibody. The negative control was performed under identical conditions with an isotype control antibody.
Tumors derived from 4 different human pancreatic cell lines were obtained which were fixed in formalin, embedded in paraffin, and section on glass slides. Immunohistochemistry was conducted with h16B5 antibody to determine if tumors derived from this cancer indication expressed clusterin. The tumors were derived from Aspc-1, BxPC-3, PANC-1, and MiaPaCa-2 all of which were derived from pancreatic cancer patients (ATCC, Manassas, Va.). Paraffin-embedded epithelial pancreatic tumor samples were placed on glass slides and fixed for 15 min at 50° C. Deparaffinization was conducted by treating 2× with xylene followed by dehydration in successive 5 min washes in 100%, 80%, and 70% ethanol. The slides were washed 2× in PBS for 5 min and treated with antigen retrieval solution (citrate-EDTA) to unmask the antigen. […] H16B5-reactive clusterin was detected by incubating with biotin-conjugated human anti-kappa followed by streptavidin-HRP tertiary antibody. […]

Substance: h16B5: humanized anti-clusterin IgG2 antibody, heavy chain SEQ ID NO.:9 and light chain SEQ ID NO.:10
- sphere-like structures in Matrigel (DU145 cells): smaller and fewer in number
- kinetics parameters compared with the parent mouse antibody ([1]; full length vs full length, Fab vs Fab): very similar
- KD of the interaction with immobilized human clusterin ([1]; stated in words): low nM range
- growth of the (primary) tumors compared to the control [2]: significantly reduced
- detection of murine clusterin in 4T1 tumors (murine clusterin): detected murine clusterin
- staining for clusterin expression in Aspc-1, BxPC-3, PANC-1 and MiaPaCa-2 derived tumors (clusterin): stained positive
